{
  "source": "paper PMC5324060",
  "about": "“Evolutionary, computational, and biochemical studies of the salicylaldehyde dehydrogenases in the naphthalene degradation pathway” (Scientific Reports, 2017)",
  "key": {"[1]": {"molecular_target": "the molecule itself", "experiment": "cross-linking; purified SALDan (0.5 mg/ml) with 0.1% aldehyde for various periods at 25 °C, quenched with 1 M Tris-HCl, SDS-PAGE and Coomassie staining"}, "[2]": {"substrate": "NC(=O)c1ccc[n+]([C@@H]2O[C@H](COP(=O)([O-])OP(=O)(O)OC[C@H]3O[C@@H](n4cnc5c(N)ncnc54)[C@H](O)[C@@H]3O)[C@@H](O)[C@H]2O)c1", "experiment": "Kinetics assay of wild-type recombinant SALDan (NADH appearance at 340 nm)", "format": "biochemical, Alteromonas naphthalenivorans", "settings": "other: wild-type; aldehyde varied at NAD^+ 100 μM, enzyme 0.1 μM; for NAD^+: SAL fixed 50 μM, NAD^+ 0–500 μM; 45.0 °C"}, "[3]": {"substrate": "O=Cc1ccccc1Cl", "experiment": "Kinetics assay of wild-type recombinant SALDan (NADH appearance at 340 nm)", "format": "biochemical, Alteromonas naphthalenivorans", "settings": "other: wild-type; aldehyde varied at NAD^+ 100 μM, enzyme 0.1 μM; for NAD^+: SAL fixed 50 μM, NAD^+ 0–500 μM; 45.0 °C"}, "[4]": {"substrate": "O=Cc1ccc2ccccc2c1", "experiment": "Kinetics assay of wild-type recombinant SALDan (NADH appearance at 340 nm)", "format": "biochemical, Alteromonas naphthalenivorans", "settings": "other: wild-type; aldehyde varied at NAD^+ 100 μM, enzyme 0.1 μM; for NAD^+: SAL fixed 50 μM, NAD^+ 0–500 μM; 45.0 °C"}, "[5]": {"substrate": "O=CCCCC=O", "experiment": "Kinetics assay of wild-type recombinant SALDan (NADH appearance at 340 nm)", "format": "biochemical, Alteromonas naphthalenivorans", "settings": "other: wild-type; aldehyde varied at NAD^+ 100 μM, enzyme 0.1 μM; for NAD^+: SAL fixed 50 μM, NAD^+ 0–500 μM; 45.0 °C"}, "[6]": {"substrate": "O=Cc1ccccc1O", "experiment": "Kinetics assay of wild-type recombinant SALDan (NADH appearance at 340 nm)", "format": "biochemical, Alteromonas naphthalenivorans", "settings": "other: wild-type; aldehyde varied at NAD^+ 100 μM, enzyme 0.1 μM; for NAD^+: SAL fixed 50 μM, NAD^+ 0–500 μM; 45.0 °C"}, "[7]": {"molecular_target": "the molecule itself", "experiment": "SEC; purified SALDan on a Superdex 200 10/300 GL column, against standards ferritin, catalase, alcohol dehydrogenase, albumin, ovalbumin; one peak at approximately 160 kDa (monomer approximately 53 kDa)"}, "[8]": {"substrate": "O=Cc1cccc(Cl)c1", "experiment": "purified protein, by the assay type", "settings": "other: wild-type; aldehyde varied at NAD^+ 100 μM, enzyme 0.1 μM; for NAD^+: SAL fixed 50 μM, NAD^+ 0–500 μM; 45.0 °C"}, "[9]": {"substrate": "O=Cc1ccc(Cl)cc1", "experiment": "purified protein, by the assay type", "settings": "other: wild-type; aldehyde varied at NAD^+ 100 μM, enzyme 0.1 μM; for NAD^+: SAL fixed 50 μM, NAD^+ 0–500 μM; 45.0 °C"}, "[10]": {"substrate": "O=Cc1ccc([N+](=O)[O-])cc1", "experiment": "purified protein, by the assay type", "settings": "other: wild-type; aldehyde varied at NAD^+ 100 μM, enzyme 0.1 μM; for NAD^+: SAL fixed 50 μM, NAD^+ 0–500 μM; 45.0 °C"}},
  "data": [
    {"protein": "Salicylaldehyde dehydrogenase from Alteromonas naphthalenivorans (SALDan) (enzyme, UniProt F5Z5S7 1-483, looked up, Salicylaldehyde dehydrogenase (EC 1.2.1.65) of Alteromonas naphthalenivorans, UniProt F5Z5S7; amplified from genomic DNA with primers from the ATG start codon to the stop codon; about 53 kDa on SDS-PAGE; Cloned between BamHI and HindIII of pET28a; also called SAL dehydrogenase; WT; source: E. coli BL21 (DE3), pET28a, purified (Ni-NTA column)) MKTQLIINNKFVDSESTNTFERYNQTLGEVVTSAAAASVADANNAAEVAQEAFKSWSKTGPTERRNVLLKAADILESKTAEFIDVMAKEVGSSGLWAGFNVMLAANVFREAASLATQIQGETIPTDKPGTLSMTIREPVGVILSIAPWNGPIVLAARAIAYPIVCGNSVVFKASEVSPKTHSLVVEAVIEAGLPAGVLNLLSNKPEDGESIVNALIEHKAVRRINFTGSTHVGRIIAQKAGYHLKRCLLELGGKSPQVILDDANLKEAAKAATFGSFLYQGQICMTTGRIIVDESVADEFGEIFAKLASKLPVGNPCDNNDCIVGPVVTQSSAERLNGYIDDALSKGAKLITGGKANGTVMKPTILDHVTSDMEIYHEESFGPLICMVRVKNADEALHTANDTPYGLSAAVFGKDVNRALQMAKDINAGHCHVNGTTVQNDAQAPYGGTKDSGWGRFDGRAVIDEFTELKWITIEPIVQDYPF", "values": [
      {"measurement": "stoichiometry N", "setting": "[1]", "result": 3},
      {"measurement": "Km", "setting": "[2]", "result": "39.5 ± 3.2", "unit": "µM"},
      {"measurement": "Vmax", "setting": "[2]", "result": 94.1, "unit": "µmol/min/mg"},
      {"measurement": "kcat", "setting": "[2]", "result": "234 ± 24.2", "unit": "s⁻¹"},
      {"measurement": "kcat/Km", "setting": "[2]", "result": "5.9e+06 ± 500000", "unit": "M⁻¹ s⁻¹"},
      {"measurement": "Km", "setting": "[3]", "result": "3.2 ± 0.3", "unit": "µM"},
      {"measurement": "Vmax", "setting": "[3]", "result": 45.6, "unit": "µmol/min/mg"},
      {"measurement": "kcat", "setting": "[3]", "result": "114 ± 17.2", "unit": "s⁻¹"},
      {"measurement": "kcat/Km", "setting": "[3]", "result": "3.57e+07 ± 4.5e+06", "unit": "M⁻¹ s⁻¹"},
      {"measurement": "Km", "setting": "[4]", "result": "3.4 ± 0.5", "unit": "µM"},
      {"measurement": "Vmax", "setting": "[4]", "result": 61.4, "unit": "µmol/min/mg"},
      {"measurement": "kcat", "setting": "[4]", "result": "153 ± 14.4", "unit": "s⁻¹"},
      {"measurement": "kcat/Km", "setting": "[4]", "result": "4.5e+07 ± 4.4e+06", "unit": "M⁻¹ s⁻¹"},
      {"measurement": "Km", "setting": "[5]", "result": "560 ± 46.0", "unit": "µM"},
      {"measurement": "Vmax", "setting": "[5]", "result": 11.6, "unit": "µmol/min/mg"},
      {"measurement": "kcat", "setting": "[5]", "result": "29.6 ± 3.7", "unit": "s⁻¹"},
      {"measurement": "kcat/Km", "setting": "[5]", "result": 53000, "unit": "M⁻¹ s⁻¹"},
      {"measurement": "Km", "setting": "[6]", "result": "3.8 ± 0.5", "unit": "µM"},
      {"measurement": "Vmax", "setting": "[6]", "result": 49.5, "unit": "µmol/min/mg"},
      {"measurement": "kcat", "setting": "[6]", "result": "124 ± 13.6", "unit": "s⁻¹"},
      {"measurement": "kcat/Km", "setting": "[6]", "result": "3.25e+07 ± 4.2e+06", "unit": "M⁻¹ s⁻¹"},
      {"measurement": "stoichiometry N", "setting": "[7]", "result": 3, "unit": "subunits"},
      {"measurement": "Km", "setting": "[8]", "result": "4.8 ± 0.7", "unit": "µM"},
      {"measurement": "Vmax", "setting": "[8]", "result": 56.8, "unit": "µmol/min/mg"},
      {"measurement": "kcat", "setting": "[8]", "result": 142, "unit": "s⁻¹"},
      {"measurement": "kcat/Km", "setting": "[8]", "result": "2.96e+07", "unit": "M⁻¹ s⁻¹"},
      {"measurement": "Km", "setting": "[9]", "result": "5.5 ± 1.1", "unit": "µM"},
      {"measurement": "Vmax", "setting": "[9]", "result": 74.2, "unit": "µmol/min/mg"},
      {"measurement": "kcat", "setting": "[9]", "result": 186, "unit": "s⁻¹"},
      {"measurement": "kcat/Km", "setting": "[9]", "result": "3.37e+07", "unit": "M⁻¹ s⁻¹"},
      {"measurement": "Km", "setting": "[10]", "result": "6.5 ± 0.9", "unit": "µM"},
      {"measurement": "Vmax", "setting": "[10]", "result": 32.3, "unit": "µmol/min/mg"},
      {"measurement": "kcat", "setting": "[10]", "result": 80.2, "unit": "s⁻¹"},
      {"measurement": "kcat/Km", "setting": "[10]", "result": "1.23e+07", "unit": "M⁻¹ s⁻¹"}
    ]}
  ]
}
